The values below come from IntAct's records for PubMed 36931259.

First the molecules themselves.
B1: 14-3-3 protein sigma (Homo sapiens), P31947 (parent)
chain: MERASLIQKAKLAEQAERYEDMAAFMKGAVEKGEELSCEERNLLSVAYKNVVGGQRAAWRVLSSIEQKSNEEGSEEKGPEVREYREKVETELQGVCDTVLGLLDSHLIKEAGDAESRVFYLKMKGDYYRYLAEVATGDDKKRIIDSARSAYQEAMDISKKEMPPTNPIRLGLALNFSVFHYEIANSPEEAISLAKTTFDEAMADLHTLSEDSYKDSTLIMQLLRDNLTLWTADNAGEEGGEAPQEPQS
partner: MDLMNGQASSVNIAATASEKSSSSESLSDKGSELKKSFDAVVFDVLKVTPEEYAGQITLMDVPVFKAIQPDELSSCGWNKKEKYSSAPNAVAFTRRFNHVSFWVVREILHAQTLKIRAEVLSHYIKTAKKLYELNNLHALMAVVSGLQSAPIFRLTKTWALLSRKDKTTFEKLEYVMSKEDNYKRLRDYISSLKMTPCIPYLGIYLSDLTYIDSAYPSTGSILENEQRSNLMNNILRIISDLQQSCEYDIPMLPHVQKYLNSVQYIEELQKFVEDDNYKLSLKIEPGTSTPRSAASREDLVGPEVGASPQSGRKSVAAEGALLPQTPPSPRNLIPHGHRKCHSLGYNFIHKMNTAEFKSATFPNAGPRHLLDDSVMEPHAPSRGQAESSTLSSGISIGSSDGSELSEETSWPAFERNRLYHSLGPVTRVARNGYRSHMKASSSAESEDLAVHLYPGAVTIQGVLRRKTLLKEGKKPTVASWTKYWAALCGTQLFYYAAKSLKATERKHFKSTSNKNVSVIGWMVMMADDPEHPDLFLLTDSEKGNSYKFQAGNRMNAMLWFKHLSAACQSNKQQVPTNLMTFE
B2: 14-3-3 protein sigma (Homo sapiens), P31947 (parent)
chain: B1 chain
partner: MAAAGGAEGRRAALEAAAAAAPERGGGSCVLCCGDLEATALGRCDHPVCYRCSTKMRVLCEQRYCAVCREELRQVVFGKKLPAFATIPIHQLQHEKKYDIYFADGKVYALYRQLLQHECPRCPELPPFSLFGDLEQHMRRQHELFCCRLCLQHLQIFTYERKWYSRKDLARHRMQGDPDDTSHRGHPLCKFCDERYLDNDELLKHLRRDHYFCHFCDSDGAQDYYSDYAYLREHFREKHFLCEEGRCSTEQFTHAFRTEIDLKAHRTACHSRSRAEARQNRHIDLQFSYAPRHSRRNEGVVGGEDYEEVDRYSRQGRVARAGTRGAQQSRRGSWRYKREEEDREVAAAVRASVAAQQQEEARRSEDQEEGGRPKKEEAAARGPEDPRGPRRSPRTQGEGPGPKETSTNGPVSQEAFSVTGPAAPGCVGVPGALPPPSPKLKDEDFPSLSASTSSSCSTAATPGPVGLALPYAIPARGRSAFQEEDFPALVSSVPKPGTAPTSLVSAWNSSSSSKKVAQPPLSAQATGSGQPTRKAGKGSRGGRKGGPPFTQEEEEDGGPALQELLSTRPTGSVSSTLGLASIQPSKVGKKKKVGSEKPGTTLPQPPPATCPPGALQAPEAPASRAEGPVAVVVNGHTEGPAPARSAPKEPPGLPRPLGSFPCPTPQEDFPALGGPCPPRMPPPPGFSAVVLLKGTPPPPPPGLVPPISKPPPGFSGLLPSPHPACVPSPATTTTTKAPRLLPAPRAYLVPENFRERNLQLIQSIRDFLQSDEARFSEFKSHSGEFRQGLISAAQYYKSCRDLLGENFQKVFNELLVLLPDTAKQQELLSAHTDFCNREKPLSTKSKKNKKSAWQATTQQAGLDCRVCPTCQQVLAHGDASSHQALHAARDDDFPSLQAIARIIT
B3: 14-3-3 protein sigma (Homo sapiens), P31947 (parent)
chain: B1 chain
partner: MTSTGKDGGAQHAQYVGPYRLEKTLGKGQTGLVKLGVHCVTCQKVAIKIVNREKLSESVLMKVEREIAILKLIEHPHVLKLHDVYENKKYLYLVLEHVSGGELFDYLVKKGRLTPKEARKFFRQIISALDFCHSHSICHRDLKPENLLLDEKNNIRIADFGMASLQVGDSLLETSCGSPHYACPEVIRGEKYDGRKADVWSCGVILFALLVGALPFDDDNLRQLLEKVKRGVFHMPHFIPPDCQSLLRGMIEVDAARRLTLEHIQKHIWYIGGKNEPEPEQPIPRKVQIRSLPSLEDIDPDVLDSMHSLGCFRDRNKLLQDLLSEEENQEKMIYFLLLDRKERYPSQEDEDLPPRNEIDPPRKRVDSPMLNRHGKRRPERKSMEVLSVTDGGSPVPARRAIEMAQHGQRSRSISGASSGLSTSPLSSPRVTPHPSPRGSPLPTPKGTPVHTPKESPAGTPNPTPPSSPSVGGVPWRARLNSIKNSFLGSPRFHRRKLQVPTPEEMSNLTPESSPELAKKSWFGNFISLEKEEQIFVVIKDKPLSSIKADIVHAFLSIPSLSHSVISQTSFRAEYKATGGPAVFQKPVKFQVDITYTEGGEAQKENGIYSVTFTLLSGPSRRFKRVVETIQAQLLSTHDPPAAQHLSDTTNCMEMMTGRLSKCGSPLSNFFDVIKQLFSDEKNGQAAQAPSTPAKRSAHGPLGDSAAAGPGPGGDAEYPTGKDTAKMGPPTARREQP
B4: 14-3-3 protein sigma (Homo sapiens), P31947 (parent)
chain: B1 chain
partner: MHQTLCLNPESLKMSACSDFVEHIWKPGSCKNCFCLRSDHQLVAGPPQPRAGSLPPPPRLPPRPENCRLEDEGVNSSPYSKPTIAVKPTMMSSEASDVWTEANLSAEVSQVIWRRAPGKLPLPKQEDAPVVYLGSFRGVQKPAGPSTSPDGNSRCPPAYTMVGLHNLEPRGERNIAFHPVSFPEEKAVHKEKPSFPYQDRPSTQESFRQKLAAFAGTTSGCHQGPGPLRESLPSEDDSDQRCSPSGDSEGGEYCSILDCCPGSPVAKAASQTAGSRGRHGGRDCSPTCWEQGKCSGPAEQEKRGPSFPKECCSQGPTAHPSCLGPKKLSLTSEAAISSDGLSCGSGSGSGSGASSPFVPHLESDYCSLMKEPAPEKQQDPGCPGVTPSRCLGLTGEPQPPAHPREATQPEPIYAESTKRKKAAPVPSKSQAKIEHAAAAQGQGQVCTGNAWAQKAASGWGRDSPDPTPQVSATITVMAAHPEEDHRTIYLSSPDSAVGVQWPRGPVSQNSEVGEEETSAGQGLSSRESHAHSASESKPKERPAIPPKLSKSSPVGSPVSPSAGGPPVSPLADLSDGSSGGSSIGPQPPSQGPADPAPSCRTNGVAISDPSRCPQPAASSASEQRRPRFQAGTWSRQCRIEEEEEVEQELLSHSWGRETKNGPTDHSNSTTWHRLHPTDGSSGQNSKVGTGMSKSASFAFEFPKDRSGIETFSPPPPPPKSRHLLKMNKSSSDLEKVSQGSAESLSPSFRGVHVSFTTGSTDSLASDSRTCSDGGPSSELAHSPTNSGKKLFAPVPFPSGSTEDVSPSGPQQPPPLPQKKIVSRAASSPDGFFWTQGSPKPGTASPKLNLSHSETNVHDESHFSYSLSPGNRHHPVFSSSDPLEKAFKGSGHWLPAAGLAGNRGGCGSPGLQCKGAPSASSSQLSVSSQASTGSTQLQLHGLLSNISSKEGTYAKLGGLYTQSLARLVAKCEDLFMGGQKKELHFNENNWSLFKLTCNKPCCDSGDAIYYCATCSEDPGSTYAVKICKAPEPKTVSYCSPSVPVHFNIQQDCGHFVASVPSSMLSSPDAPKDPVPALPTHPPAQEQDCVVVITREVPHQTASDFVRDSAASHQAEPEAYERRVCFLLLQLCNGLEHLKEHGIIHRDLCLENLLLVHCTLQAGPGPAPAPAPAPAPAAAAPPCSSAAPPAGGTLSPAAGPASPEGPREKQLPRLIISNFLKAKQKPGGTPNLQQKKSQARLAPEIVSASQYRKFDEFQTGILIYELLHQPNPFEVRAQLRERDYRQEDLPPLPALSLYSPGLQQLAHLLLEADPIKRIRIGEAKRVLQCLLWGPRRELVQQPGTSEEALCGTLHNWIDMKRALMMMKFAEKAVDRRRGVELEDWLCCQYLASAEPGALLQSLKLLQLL
B5: 14-3-3 protein sigma (Homo sapiens), P31947 (parent)
chain: B1 chain
partner: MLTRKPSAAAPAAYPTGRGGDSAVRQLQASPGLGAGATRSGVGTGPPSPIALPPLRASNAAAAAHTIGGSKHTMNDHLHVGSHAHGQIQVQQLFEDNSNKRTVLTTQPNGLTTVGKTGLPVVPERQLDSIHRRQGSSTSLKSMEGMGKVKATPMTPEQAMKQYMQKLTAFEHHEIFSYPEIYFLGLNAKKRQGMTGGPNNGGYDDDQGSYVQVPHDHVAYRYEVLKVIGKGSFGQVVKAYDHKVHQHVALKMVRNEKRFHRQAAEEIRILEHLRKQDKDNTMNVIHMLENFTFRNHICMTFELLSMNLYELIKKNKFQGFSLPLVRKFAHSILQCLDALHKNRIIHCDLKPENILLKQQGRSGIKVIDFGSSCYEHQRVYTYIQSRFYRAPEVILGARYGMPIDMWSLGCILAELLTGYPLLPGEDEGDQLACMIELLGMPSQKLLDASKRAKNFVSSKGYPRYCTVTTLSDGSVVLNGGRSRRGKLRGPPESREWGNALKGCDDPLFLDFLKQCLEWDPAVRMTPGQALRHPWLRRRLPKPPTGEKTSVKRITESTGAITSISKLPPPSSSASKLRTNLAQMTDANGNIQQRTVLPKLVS
B6: 14-3-3 protein sigma (Homo sapiens), P31947 (parent)
chain: B1 chain
partner: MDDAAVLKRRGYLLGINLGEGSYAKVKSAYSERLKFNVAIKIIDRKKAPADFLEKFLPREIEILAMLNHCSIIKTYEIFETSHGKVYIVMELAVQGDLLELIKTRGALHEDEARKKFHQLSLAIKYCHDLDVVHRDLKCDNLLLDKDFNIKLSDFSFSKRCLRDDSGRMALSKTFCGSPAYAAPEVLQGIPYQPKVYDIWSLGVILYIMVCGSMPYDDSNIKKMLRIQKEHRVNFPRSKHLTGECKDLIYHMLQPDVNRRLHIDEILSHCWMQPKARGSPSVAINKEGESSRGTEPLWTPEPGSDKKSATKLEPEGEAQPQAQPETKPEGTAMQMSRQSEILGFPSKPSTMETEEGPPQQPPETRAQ
B7: 14-3-3 protein sigma (Homo sapiens), P31947 (parent)
chain: B1 chain
partner: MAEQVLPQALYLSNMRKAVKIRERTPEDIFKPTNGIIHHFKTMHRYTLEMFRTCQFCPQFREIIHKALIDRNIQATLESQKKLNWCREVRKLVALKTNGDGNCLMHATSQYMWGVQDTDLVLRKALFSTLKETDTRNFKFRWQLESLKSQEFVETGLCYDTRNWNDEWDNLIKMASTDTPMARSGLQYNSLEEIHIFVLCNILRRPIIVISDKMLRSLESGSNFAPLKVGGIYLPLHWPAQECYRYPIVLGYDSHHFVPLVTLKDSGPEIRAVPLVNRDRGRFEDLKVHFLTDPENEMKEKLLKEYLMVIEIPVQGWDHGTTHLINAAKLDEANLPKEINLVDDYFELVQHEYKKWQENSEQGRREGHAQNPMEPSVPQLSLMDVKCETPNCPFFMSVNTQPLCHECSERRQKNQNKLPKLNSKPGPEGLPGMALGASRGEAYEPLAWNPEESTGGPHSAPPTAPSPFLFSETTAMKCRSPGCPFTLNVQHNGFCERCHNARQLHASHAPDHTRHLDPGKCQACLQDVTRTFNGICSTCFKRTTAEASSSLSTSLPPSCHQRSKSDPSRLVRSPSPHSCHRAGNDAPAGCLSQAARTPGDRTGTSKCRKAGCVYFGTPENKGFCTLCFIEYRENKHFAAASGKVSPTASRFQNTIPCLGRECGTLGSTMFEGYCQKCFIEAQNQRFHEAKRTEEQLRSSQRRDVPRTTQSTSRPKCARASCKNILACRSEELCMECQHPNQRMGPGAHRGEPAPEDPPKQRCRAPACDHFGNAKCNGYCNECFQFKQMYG

Variants of B1 are the subject of the first test. The following applies: with rgps2_human RALGPS2, Q86X27.
For the variant K49E;R56E;V178D, the “effect of a mutation on the interaction” value is “decreasing interaction strength”.

The next test covers variants of B2. The following applies: with zn598_human ZNF598, Q86UK7.
For K49E;R56E;V178D, the “effect of a mutation on the interaction” value is reported as “decreasing interaction strength”.

A further test covers variants of B3. The settings on record: with brsk2_human BRSK2, Q8IWQ3.
K49E;R56E;V178D: the “effect of a mutation on the interaction” value was “decreasing interaction strength”.

Variants of B4 are the subject of another test. The settings on record: with prag1_human PRAG1, Q86YV5.
K49E;R56E;V178D: the “effect of a mutation on the interaction” value was “decreasing interaction strength”.

The variants in the next test derive from B5. The following applies: with dyrk2_human DYRK2, Q92630.
With K49E;R56E;V178D, the “effect of a mutation on the interaction” value is listed as “decreasing interaction strength”.

The variants in another test derive from B6. The following applies: with tssk1_human TSSK1B.
In the case of K49E;R56E;V178D, the “effect of a mutation on the interaction” value is on record as “decreasing interaction strength”.

The variants in the next test derive from B7. The following applies: with tnap3_human TNFAIP3, P21580.
Regarding K49E;R56E;V178D, the “effect of a mutation on the interaction” value was “decreasing interaction strength”.
